The series relates to K4 kissing-loop RNA reporter. The series is described as follows: apparent KD of K4 kissing-loop reporter; higher = weaker reporter binding. As to conditions: Eterna round: R107. The procedure:
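RNA-MaP round R107: designed RNA switches with theophylline, tryptophan, arginine or FMN aptamers are transcribed on-chip within common flanks. They are titrated with a labelled K4 kissing-loop RNA reporter in RNA-MaP buffer (100 mM Tris pH 7.5, 80 mM KCl, 4 mM MgCl2), without ligand or with the indicated ligand. Median apparent KD per design.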

[1] abbreviates: input ligand: theophylline 20 uM.
The mark [2] stands for this setting: input ligand: tryptophan 2.4 mM.
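Note: bound reporter read as fluorescence of individual clusters on recovered sequencing chips by microscopy, with normalized cluster intensities fitted with a binding model.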

With “AAUAUCUAGUAUAUUUUUAAUAAAACAGAUACCAGUGAUAAUAGACACCCUUGGCAGCUGGUCGAGUGAUGUUCGUUUAUAUUAA [JR_SSTheophyA_Sub006]”, the “apparent KD of K4 kissing-loop reporter” value (input ligand: FMN 200 uM) was determined as 85.5 nM; the “apparent KD of K4 kissing-loop reporter” value (input ligand: arginine 13.2 mM) worked out at 83.6 nM; the “apparent KD of K4 kissing-loop reporter” value (input ligand: none) was determined as 104 nM; the “apparent KD of K4 kissing-loop reporter” value under setting [1] worked out at 176 nM; the “apparent KD of K4 kissing-loop reporter” value under setting [2] worked out at 57.3 nM.

As to “CGUAGCAGACGAAGGAGCGGCUACCUGAUUCAAGGUGAUGCUUGAGUGAUGUUCAGGUGUAGCCAGGUAGGUCGCGUCUGCUACG [Arg B Ex t9]”, the “apparent KD of K4 kissing-loop reporter” value is, setting by setting: (input ligand: FMN 200 uM) 201 nM; (input ligand: arginine 13.2 mM) 144 nM; (input ligand: none) 164 nM; under setting [1], 180 nM; under setting [2], 170 nM.

Regarding “AGAUUCGACACGGCCGCCACUUCCGGUGGCUGGUGUCAUGGUGCGCGUGAGUGAUGUUUAUGUGGGAGGACCGGGUGUUGAGUCU [whbob_Ex_Tryp_B_w42]”, the “apparent KD of K4 kissing-loop reporter” value by setting is: (input ligand: FMN 200 uM) 616 nM; (input ligand: arginine 13.2 mM) 393 nM; (input ligand: none) 654 nM; under setting [1], 559 nM; under setting [2], 704 nM.

“GCCGUAGAUUGAAGGAGCGCCAUCUUACCAAGAGUGAUGUUCUUUGGUACCAUGUACAGCUGGCAGGUAGGUCGCAAUCUACGGC”: the “apparent KD of K4 kissing-loop reporter” value (input ligand: FMN 200 uM) is 192 nM; the “apparent KD of K4 kissing-loop reporter” value (input ligand: arginine 13.2 mM) is 151 nM; the “apparent KD of K4 kissing-loop reporter” value (input ligand: none) came out at 173 nM; the “apparent KD of K4 kissing-loop reporter” value under setting [1] was found to be 181 nM; the “apparent KD of K4 kissing-loop reporter” value under setting [2] is 169 nM.

Take “AAACGUUGGUCGGAUACCAGCUUGAUCGGAAACGAUCUGCUGGAGUGAUGUUCCAAGUAAAGCCCUUGGCAGCCGACCGACGAAA [MAT - Same State Theophlline B - Mod of Eli - D18]”: the “apparent KD of K4 kissing-loop reporter” value reads like this: (input ligand: FMN 200 uM) 148 nM; (input ligand: arginine 13.2 mM) 65.1 nM; (input ligand: none) 99.4 nM; under setting [1], 95.4 nM; under setting [2], 71.6 nM.

In the case of “AAAUUUAUAUUAGAUACCAGUUUAUUGGAUGUAAAUUAUGACAUGAGUGAUGUUCAUGUAAGCCCUUGGCAGCUGGUAUGGGUUU [KL-XTheo-B22]”, the “apparent KD of K4 kissing-loop reporter” value by setting is: (input ligand: FMN 200 uM) 132 nM; (input ligand: arginine 13.2 mM) 119 nM; (input ligand: none) 127 nM; under setting [1], 124 nM; under setting [2], 114 nM.

Consider “CGCCGUAAGGCGGUCGCUCCCACUCCGGAAGGAGCGCCCGGAAGGGCAGGUAGGUCGCCGGAGUGAUGUUCCGGUGGAGGGACCG [#2 Exclusion - Arginine A Attempt #9 (Inspired by Omei)]”, for which the “apparent KD of K4 kissing-loop reporter” value runs as follows: (input ligand: FMN 200 uM) 587 nM; (input ligand: arginine 13.2 mM) 295 nM; (input ligand: none) 365 nM; under setting [1], 270 nM; under setting [2], 367 nM.

Regarding “GGCGCCAGGAAAGGAUAUCUAAGUCUAUUAUCAAGAAUUGCCUCAAGAUCGGAGUGAUGUUCCCAGAGAGAAGGUUCUAUCCGCU [theeternabot_exclusion_KL_FMN_B_38]”, the “apparent KD of K4 kissing-loop reporter” value by setting is: (input ligand: FMN 200 uM) 170 nM; (input ligand: arginine 13.2 mM) 193 nM; (input ligand: none) 186 nM; under setting [1], 206 nM; under setting [2], 164 nM.

For the sequence “UGCGCUAUGUCCUAAAACGUCCUCCGGGAUACCAGUGUCUUUUUAUACCCUUGGCAGCUUGAGUGAUGUUUGAUGCCGUUCUUGU [izzxmullin]”, the “apparent KD of K4 kissing-loop reporter” value runs as follows: (input ligand: FMN 200 uM) 432 nM; (input ligand: arginine 13.2 mM) 225 nM; (input ligand: none) 310 nM; under setting [1], 386 nM; under setting [2], 304 nM.

On to “AAAGUUGAAAGUGAUACCAGACGAGUGAAGGGAAGUAAUUAAUUUGGAGUGAUGUUCCGCGUCCCUUGGCAGCAUUUUGUAAUUU [Exclusion Theophylline B GF 24]”, for which the “apparent KD of K4 kissing-loop reporter” value is, setting by setting: (input ligand: FMN 200 uM) 166 nM; (input ligand: arginine 13.2 mM) 195 nM; (input ligand: none) 189 nM; under setting [1], 186 nM; under setting [2], 153 nM.

On to “ACCGCAUUGGGAUGAUCCCAAUGCGCUGGUCGAGGACCGGUACGGCCGCCACUCGUCCAGUGAUGUUGGAAUUGGGCUACUGAAG [KL-XTryp-A11]”, for which the “apparent KD of K4 kissing-loop reporter” value is, setting by setting: (input ligand: FMN 200 uM) 134 nM; (input ligand: arginine 13.2 mM) 86.7 nM; (input ligand: none) 183 nM; under setting [1], 195 nM; under setting [2], 61.1 nM.

As for “UUUAACGAGUGAUGUUCGAAAAGUAAUGGUGAGGAUAUCGUUUUUUCGAGAAGGCACCUCGAAGUGAUACGAAAGUAUCGCUUCG [FMN A 3]”, the “apparent KD of K4 kissing-loop reporter” value (input ligand: FMN 200 uM) stood at 172 nM; the “apparent KD of K4 kissing-loop reporter” value (input ligand: arginine 13.2 mM) is 332 nM; the “apparent KD of K4 kissing-loop reporter” value (input ligand: none) was 315 nM; the “apparent KD of K4 kissing-loop reporter” value under setting [1] is 314 nM; the “apparent KD of K4 kissing-loop reporter” value under setting [2] turned out to be 266 nM.

Take “GGAAAUCUUGCCGAUACCAGAUCGCGCGGCCAUUGCUAGUGAUGUUGGCAAUAAGUACUCAUCCCUUGGCAGCGGUAAGGCAGUG [theeternabot_sameState_KL_Theo_B_23]”: the “apparent KD of K4 kissing-loop reporter” value (input ligand: FMN 200 uM) worked out at 390 nM; the “apparent KD of K4 kissing-loop reporter” value (input ligand: arginine 13.2 mM) was 293 nM; the “apparent KD of K4 kissing-loop reporter” value (input ligand: none) is 359 nM; the “apparent KD of K4 kissing-loop reporter” value under setting [1] amounted to 195 nM; the “apparent KD of K4 kissing-loop reporter” value under setting [2] stood at 280 nM.

For the sequence “GUGGCACGAAAGUGCCACGCAUCCUCUGGCUAGGAUAUCUGGAAACAGAGAAGGAGCUCAUGAGUGAUGUUCAUCUAGAGGAUGC”, the “apparent KD of K4 kissing-loop reporter” value (input ligand: FMN 200 uM) came out at 827 nM; the “apparent KD of K4 kissing-loop reporter” value (input ligand: arginine 13.2 mM) was determined as 537 nM; the “apparent KD of K4 kissing-loop reporter” value (input ligand: none) was found to be 1010 nM; the “apparent KD of K4 kissing-loop reporter” value under setting [1] is 978 nM; the “apparent KD of K4 kissing-loop reporter” value under setting [2] was determined as 947 nM.

In the case of “UCACCGCCUAGUGAUGUUACGCGACUCAGAAAGGAUAUAAUCAAUCUUAGAAGGUUCACACCGUAUGGAUAUUAUCUAUCUCGUU [theeternabot_exclusion_KL_FMN_A_39]”, the “apparent KD of K4 kissing-loop reporter” value was 456 nM (input ligand: FMN 200 uM); 284 nM (input ligand: arginine 13.2 mM); 427 nM (input ligand: none); 437 nM under setting [1]; 398 nM under setting [2].

Regarding “GUACGCUCUCGAGUGAUGUUCGGUAAUCGCGAGGAUAUCGCUUUUGCGAGAAGGCGCGGAAUGAGGAAACUCGUUCUGAGUGUAC [FMN A 23]”, the “apparent KD of K4 kissing-loop reporter” value by setting is: (input ligand: FMN 200 uM) 364 nM; (input ligand: arginine 13.2 mM) 444 nM; (input ligand: none) 461 nM; under setting [1], 637 nM; under setting [2], 715 nM.

“GUCUUACUAUAGGAUACCAGCAUGCAAGGAGUGAUGUUCCCGUCAUAUGAGGAGUACCGCUGCCCUUGGCAGCCUCUUGUAAGUU [theeternabot_sameState_KL_Theo_B_1]”: the “apparent KD of K4 kissing-loop reporter” value by setting is: (input ligand: FMN 200 uM) 502 nM; (input ligand: arginine 13.2 mM) 253 nM; (input ligand: none) 353 nM; under setting [1], 411 nM; under setting [2], 316 nM.

As for “UGUAUGUGAUUUGAUACCAGACCAGCUGGUGGAAACUGAGUGAUGUUCAGUUAGGUUUGGGUCCCUUGGCAGCAAAUCGCAUACU [KL-SSTheoB28]”, the “apparent KD of K4 kissing-loop reporter” value is, setting by setting: (input ligand: FMN 200 uM) 152 nM; (input ligand: arginine 13.2 mM) 119 nM; (input ligand: none) 127 nM; under setting [1], 134 nM; under setting [2], 138 nM.

With “GGUGACGGCCAGGAGUGAUGUAUAGAAUAGCGAGGACCGGUACGGCCGCCACUCGUGAAGAAAAGGGAGUGAUGUUCCGUAAUGG [Kazoo B]”, the “apparent KD of K4 kissing-loop reporter” value reads like this: (input ligand: FMN 200 uM) 380 nM; (input ligand: arginine 13.2 mM) 284 nM; (input ligand: none) 450 nM; under setting [1], 229 nM; under setting [2], 302 nM.

As for “UAAAUCACACGAGAUACCAGCCAAACCGAACUUGAGCACUAUAGUGAUGUUAUAUUGCGAGGCCCUUGGCAGCUCAAUAGAACAA [theeternabot_sameState_KL_Theo_B_11]”, the “apparent KD of K4 kissing-loop reporter” value (input ligand: FMN 200 uM) worked out at 213 nM; the “apparent KD of K4 kissing-loop reporter” value (input ligand: arginine 13.2 mM) came out at 174 nM; the “apparent KD of K4 kissing-loop reporter” value (input ligand: none) amounted to 190 nM; the “apparent KD of K4 kissing-loop reporter” value under setting [1] stood at 145 nM; the “apparent KD of K4 kissing-loop reporter” value under setting [2] was determined as 182 nM.

On to “UUUAUUAAGACGGCCGCCACUGAAUCAUAGUGAUGUUAUGAUAUAAUUUUAGUGAUUUUGAUUAGCAGGACCGGGUCAAUUAUUA [#26 K4 Tryptophan B Exclusion]”, for which the “apparent KD of K4 kissing-loop reporter” value stood at 165 nM (input ligand: FMN 200 uM); 133 nM (input ligand: arginine 13.2 mM); 144 nM (input ligand: none); 139 nM under setting [1]; 140 nM under setting [2].

Turning to “UUUAGGAGUGGUGUUGAUUAGGGAGCGGAAGGAGCGCCGAGGAAGGCAGGUAGGUCGCCGGAUUAUAGUGAUGUUAUGAAGAGGG [ExArg.M]”, the “apparent KD of K4 kissing-loop reporter” value runs as follows: (input ligand: FMN 200 uM) 875 nM; (input ligand: arginine 13.2 mM) 723 nM; (input ligand: none) 792 nM; under setting [1], 912 nM; under setting [2], 654 nM.

The values above are taken from the supplement of paper PMC9170038.
